This is an account of results in PMC7504044 (International Journal of Molecular Sciences, 2020).

As usually defined, the Kd is the concentration at which binding is half-saturated. By koff is commonly meant a measure of how fast the partners let go of each other. A lower koff goes with slow dissociation.

The target in series [1] is emerin (Caenorhabditis elegans) (UniProt O01971). Conditions: cited from earlier work.
Series [2] deals with the molecule itself. As to the kind of experiment: SPR; GST–emerin coupled by EDC–NHS to polyethylene glycol/carboxyl sensor slides (Reichert SR7500DC); five increasing concentrations of analyte in PBST at 40 µL/min, 150 s association, 150 s dissociation, no regeneration. A general note: SPR reads the build-up and loss of mass on a sensor chip optically.
The series “SPR” concerns the molecule itself. Kind of series: SPR.

Take emerin (from UniProt O01971): the Kd in series [1] was 14 nM.

B1: GST–emerin (full-length emerin fused to GST) (natural protein, UniProt P50402 1-254, looked up)
chain: MDNYADLSDTELTTLLRRYNIPHGPVVGSTRRLYEKKIFEYETQRRRLSPPSSSAASSYSFSDLNSTRGDADMYDLPKKEDALLYQSKGYNDDYYEESYFTTRTYGEPESAGPSRAVRQSVTSFPDADAFHHQVHDDDLLSSSEEECKDRERPMYGRDSAYQSITHYRPVSASRSSLDLSYYPTSSSTSFMSSSSSSSSWLTRRAIRPENRAPGAGLGQDRQVPLWGQLLLFLVFVIVLFFIYHFMQAEEGNPF
notes: emerin, full-length; also called pGST–emerin; source: E. coli BL21, purified (glutathione-Sepharose)
On to B1, for which the affinity in series [2], expressed as Kd, was 1.87 nM. The molecule also registered a koff in the series “SPR” of 0.00154 s⁻¹.
